Consider three molecules from PMC2932728, “The Canine Papillomavirus and Gamma HPV E7 Proteins Use an Alternative Domain to Bind and Destabilize the Retinoblastoma Protein” (PLoS Pathogens, 2010).

One assay concerns the target pRb. Kind of assay: GST pull-down, Western blot with anti-pRb antibody, densitometry. The following applies: binding normalized to GSTE7 protein; wild type CPV-2 E7 GST fusion set to 100%; parent: 100.
Another assay has as its target T1, GST HPV16 E7CR1CR2 (human papillomavirus type 16 (HPV16), UniProt P03129 1-38).
T1 construct: E7 protein of human papillomavirus type 16, CR1 and CR2 domains; also called the combined CR domains; source: E. coli BL21pLysS, purified (glutathione-Sepharose)
T1 chain: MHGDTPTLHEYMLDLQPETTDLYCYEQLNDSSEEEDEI
Kind of assay: pull-down; 5 µg GST fusion protein with 50 µg Jurkat cell nuclear extract, 1 h at 4°C in 20 mM Hepes/150 mM KCl/4 mM MgCl2/1 mM EDTA/0.02% Nonidet P-40/10% glycerol; glutathione-Sepharose beads; Western blot for pRb and GST, densitometry normalised to GSTE7, wild type CPV-2 E7 set to 100%. The following applies: one partner purified. (In general: Immunoblotting shows a protein as a band on a membrane.)

Regarding “GST CPV-2 E7 wild type fusion protein S26C”, the percent of parent with pRb came out at 147%.

For “GST CPV-2 E7 wild type fusion protein S26G”, the percent of parent in the assay with pRb worked out at 99%.

B1: human retinoblastoma tumor suppressor protein pRb (natural protein, human (endogenous in Jurkat), UniProt P06400 1-928, looked up)
chain: MPPKTPRKTAATAAAAAAEPPAPPPPPPPEEDPEQDSGPEDLPLVRLEFEETEEPDFTALCQKLKIPDHVRERAWLTWEKVSSVDGVLGGYIQKKKELWGICIFIAAVDLDEMSFTFTELQKNIEISVHKFFNLLKEIDTSTKVDNAMSRLLKKYDVLFALFSKLERTCELIYLTQPSSSISTEINSALVLKVSWITFLLAKGEVLQMEDDLVISFQLMLCVLDYFIKLSPPMLLKEPYKTAVIPINGSPRTPRRGQNRSARIAKQLENDTRIIEVLCKEHECNIDEVKNVYFKNFIPFMNSLGLVTSNGLPEVENLSKRYEEIYLKNKDLDARLFLDHDKTLQTDSIDSFETQRTPRKSNLDEEVNVIPPHTPVRTVMNTIQQLMMILNSASDQPSENLISYFNNCTVNPKESILKRVKDIGYIFKEKFAKAVGQGCVEIGSQRYKLGVRLYYRVMESMLKSEEERLSIQNFSKLLNDNIFHMSLLACALEVVMATYSRSTSQNLDSGTDLSFPWILNVLNLKAFDFYKVIESFIKAEGNLTREMIKHLERCEHRIMESLAWLSDSPLFDLIKQSKDREGPTDHLESACPLNLPLQNNHTAADMYLSPVRSPKKKGSTTRVNSTANAETQATSAFQTQKPLKSTSLSLFYKKVYRLAYLRLNTLCERLLSEHPELEHIIWTLFQHTLQNEYELMRDRHLDQIMMCSMYGICKVKNIDLKFKIIVTAYKDLPHAVQETFKRVLIKEEEYDSIIVFYNSVFMQRLKTNILQYASTRPPTLSPIPHIPRSPYKFPSSPLRIPGGNIYISPLKSPYKISEGLPTPTKMTPRSRILVSIGESFGTSEKFQKINQMVCNSDRVLKRSAEGSNPPKPLKKLRFDIEGSDEADGSKHLPGESKFQQKLAEMTSTRTRMQKQKMNDSMDTSNKEEK
notes: retinoblastoma protein pRb, human, endogenous in Jurkat cell nuclear extract; also called human pRb; source: endogenous, Jurkat cell nuclear extract
For B1, the “fold pRb bound against the HPV16 E7 carboxyl-terminus domain” value with GST HPV16 E7CR1CR2 came to 6 fold.
